Measured values taken from article PMC5498027.
Positions count from the first letter of the chain named. Names and notes keep the numbering of the source. Values belong to the binder of their own block, whether it stands above or below them.

What was measured:
[1] = biological target: T1, taxol-stabilized microtubules polymerized from bovine brain tubulin, Q6B856; assay: MT pelleting assay (western blot densitometry), fitted curve; settings: chain shown with the change; 5 mM AMPPNP; fitted curve read at 8 µM tubulin; parent: est. 0.95; read off a plot
[2] = biological target: T1, taxol-stabilized microtubules …; assay: MT pelleting assay (western blot densitometry); settings: chain shown with the change, 5 mM AMPPNP, read off a plot

T1 sequence (chain, as listed by the source, chain 1 of 2): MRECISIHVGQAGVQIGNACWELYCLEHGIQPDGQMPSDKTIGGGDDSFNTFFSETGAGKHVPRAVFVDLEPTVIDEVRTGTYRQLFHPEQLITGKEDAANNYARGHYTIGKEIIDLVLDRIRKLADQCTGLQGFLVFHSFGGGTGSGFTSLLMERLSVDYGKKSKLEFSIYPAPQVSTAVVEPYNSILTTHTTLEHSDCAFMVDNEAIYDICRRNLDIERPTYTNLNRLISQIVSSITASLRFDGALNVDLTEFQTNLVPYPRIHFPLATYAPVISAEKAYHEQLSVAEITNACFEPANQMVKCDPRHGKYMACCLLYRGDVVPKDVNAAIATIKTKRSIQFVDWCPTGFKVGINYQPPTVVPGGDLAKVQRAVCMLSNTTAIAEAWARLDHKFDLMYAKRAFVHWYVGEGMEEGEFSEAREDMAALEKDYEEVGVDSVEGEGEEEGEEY
T1 sequence (Q6B856 whole entry, chain 2 of 2): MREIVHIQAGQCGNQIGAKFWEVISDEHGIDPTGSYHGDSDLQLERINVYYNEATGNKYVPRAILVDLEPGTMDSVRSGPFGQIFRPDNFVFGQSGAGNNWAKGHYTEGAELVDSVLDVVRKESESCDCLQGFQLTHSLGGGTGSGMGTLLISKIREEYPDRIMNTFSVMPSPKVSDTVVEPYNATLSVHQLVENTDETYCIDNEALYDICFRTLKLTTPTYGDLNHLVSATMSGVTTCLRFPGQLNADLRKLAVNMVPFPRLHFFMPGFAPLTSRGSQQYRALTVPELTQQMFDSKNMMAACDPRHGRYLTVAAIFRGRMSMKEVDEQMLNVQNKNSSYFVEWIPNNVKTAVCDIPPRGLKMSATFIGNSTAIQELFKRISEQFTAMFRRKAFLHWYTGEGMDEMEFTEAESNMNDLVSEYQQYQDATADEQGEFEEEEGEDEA

response (fraction Kif5A bound) [1]: 0.86
response (fraction Kif5A bound) ([2]; 2 µM tubulin): 0.7
response (fraction Kif5A bound) ([2]; 4 µM tubulin): 0.83
response (fraction Kif5A bound) ([2]; 8 µM tubulin): 0.8
B1: human Kif5A, first 560 amino acids, wild type, fused to EGFP and a C-terminal 6xHIS tag, Q12840 S203C (protein)
chain: MAETNNECSIKVLCRFRPLNQAEILRGDKFIPIFQGDDSVVIGGKPYVFDRVFPPNTTQEQVYHACAMQIVKDVLAGYNGTIFAYGQTSSGKTHTMEGKLHDPQLMGIIPRIARDIFNHIYSMDENLEFHIKVSYFEIYLDKIRDLLDVTKTNLSVHEDKNRVPFVKGCTERFVSSPEEILDVIDEGKSNRHVAVTNMNEHSCRSHSIFLINIKQENMETEQKLSGKLYLVDLAGSEKVSKTGAEGAVLDEAKNINKSLSALGNVISALAEGTKSYVPYRDSKMTRILQDSLGGNCRTTMFICCSPSSYNDAETKSTLMFGQRAKTIKNTASVNLELTAEQWKKKYEKEKEKTKAQKETIAKLEAELSRWRNGENVPETERLAGEEAALGAELCEETPVNDNSSIVVRIAPEERQKYEEEIRRLYKQLDDKDDEINQQSQLIEKLKQQMLDQEELLVSTRGDNEKVQRELSHLQSENDAAKDEVKEVLQALEELAVNYDQKSQEVEEKSQQNQLLVDELSQKVATMLSLESELQRLQEVSGHQRKRIAEVLNGLMKDLSE

response (fraction Kif5A bound) [1]: 1
response (fraction Kif5A bound) ([2]; 2 µM tubulin): 0.9
response (fraction Kif5A bound) ([2]; 4 µM tubulin): 0.91
response (fraction Kif5A bound) ([2]; 8 µM tubulin): 0.95
B2: human Kif5A, first 560 amino acids, wild type, fused to EGFP and a C-terminal 6xHIS tag, Q12840 S202N (protein)
chain: B1 chain with S202N, C203S

response (fraction Kif5A bound) [1]: 0.47
response (fraction Kif5A bound) ([2]; 2 µM tubulin): 0.44
response (fraction Kif5A bound) ([2]; 4 µM tubulin): 0.41
response (fraction Kif5A bound) ([2]; 8 µM tubulin): 0.36
B3: human Kif5A, first 560 amino acids, wild type, fused to EGFP and a C-terminal 6xHIS tag, Q12840 R204W (protein)
chain: B1 chain with C203S, R204W

response (fraction Kif5A bound) [1]: 0.79
response (fraction Kif5A bound) ([2]; 2 µM tubulin): 0.8
response (fraction Kif5A bound) ([2]; 4 µM tubulin): 0.73
response (fraction Kif5A bound) ([2]; 8 µM tubulin): 0.76
B4: human Kif5A, first 560 amino acids, wild type, fused to EGFP and a C-terminal 6xHIS tag, Q12840 R204Q (protein)
chain: B1 chain with C203S, R204Q

response (fraction Kif5A bound) [1]: 1
response (fraction Kif5A bound) ([2]; 2 µM tubulin): 0.94
response (fraction Kif5A bound) ([2]; 4 µM tubulin): 0.95
response (fraction Kif5A bound) ([2]; 8 µM tubulin): 0.94
B5: human Kif5A, first 560 amino acids, wild type, fused to EGFP and a C-terminal 6xHIS tag, Q12840 M198T (protein)
chain: B1 chain with M198T, C203S

response (fraction Kif5A bound) [1]: 0.74
response (fraction Kif5A bound) ([2]; 2 µM tubulin): 0.56
response (fraction Kif5A bound) ([2]; 4 µM tubulin): 0.63
response (fraction Kif5A bound) ([2]; 8 µM tubulin): 0.73
B6: human Kif5A, first 560 amino acids, wild type, fused to EGFP and a C-terminal 6xHIS tag, Q12840 E251K (protein)
chain: B1 chain with C203S, E251K
